Measured values taken from patent US20250382353A1 (published 2025).

Legend:
Assay in all cases: SPR
[1] = target: SARS-CoV-2 Omicron BA.1 spike (SARS-CoV-2 Omicron BA.1, UniProt P0DTC2 14-1208)
rVSV-Delta spike = rVSV-Delta spike (SARS-CoV-2 Delta, UniProt P0DTC2 14-1252)
BA.2 = target: BA.2
rVSV Beta spike = rVSV Beta spike (SARS-CoV-2 Beta, UniProt P0DTC2 14-1252)

B1: Fab 2A10 (antibody, V domains shown)
VH: QVQLVESGGGLIQPGGSLRLSCAASEFIVSSNYMSWVRQAPGKGLEWVSLLYSGGTTYYADSVKGRFTISRDNSKNTLFLQMNSLRAEDTAMYYCARDRGPWLHDYWGQGTLVTVS
VL: DIVMTQSPSSLSASVGDRVTITCQASQDINKYCNWYQQKPGKAPKLLIYDASNLETGVPSRFSGSGSGTDFTFTINSLQPEDIATYYCQQYDNLPPTFGGGTKVEIK
Kd [1]: 4.42 nM
Kd (rVSV-Delta spike): 0.132 nM

B2: Fab 1C3 (Fab, V domains shown)
VH: QVQLLESGGGLVQPGRSLRLSCAASGFTFDDYAMHWVRQPPGKGLEWVSGSSWNSGSVVYADSVKGRFTISRDSAKNSLHLQMNSLRVEDTALYYCAKAVDPTRGSYSPDYGFDIWGQGTMVTVS
VL: not shown
Kd (BA.2): 0.023 nM

B3: 1C3 antigen-binding fragment (Fab) (Fab, V domains shown)
VH: B2 VH
VL: not shown
Kd [1]: 0.041 nM
Kd (rVSV-Delta spike): 0.036 nM
Kd (rVSV Beta spike): 0.039 nM
